Among the data in patent US20230405046A1 are minimal recognized peptide concentration (functional avidity, IFNγ ELISPOT) values, retold here.

To fix the notation:
B1: TCRCD8-EL8-LM7 #1 (TCR)
TCR alpha: AQKITQTQPGMFVQEKEAVTLDCTYDTSDPSYGLFWYKQPSSGEMIFLIYQGSYDQQNATEGRYSLNFQKARKSANLVISASQLGDSAMYFCAMREGQDSSYKLIFGSGTRLLVRPDIQNPDPAVYQLRDS
TCR beta: MGTRLLCCVAFCLLGAGPVDSGVTQTPKHLITATGQRVTLRCSPRSGDLSVYWYQQSLDQGLQFLIQYYNGEERAKGNILERFSAQQFPDLHSELNLSSLELGDSALYFCASSVLGPNTEAFFGQGTRLTVVEDLNKVFPPEVAVFE
B2: TCRCD8-EL8-LM7 #8 (TCR)
TCR alpha: AQKITQTQPGMFVQEKEAVTLDCTYDTSDPSYGLFWYKQPSSGEMIFLIYQGSYDQQNATEGRYSLNFQKARKSANLVISASQLGDSAMYFCAMREIRDSSYKLIFGSGTRLLVRPDIQNPDPAVYQLRDS
TCR beta: MGTRLLCCVAFCLLGAGPVDSGVTQTPKHLITATGQRVTLRCSPRSGDLSVYWYQQSLDQGLQFLIQHYNGEERAKGNILERFSAQQFPDLHSELNLSSLELGDSALYFCASSPAGPNTEAFFGQGTRLTVVEDLNKVFPPEVAVFE
B3: TCRCD8-EL8-LM7 #4 (TCR)
TCR alpha: AQKVTQAQTEISVVEKEDVTLDCVYETRDTTYYLFWYKQPPSGELVFLIRRNSFDEQNEISGRYSWNFQKSTSSFNFTITASQVVDSAVYFCALSNAGGTSYGKLTFGQGTILTVHPNIQNPDPAVYQLRDS
TCR beta: EAQVTQNPRYLITVTGKKLTVTCSQNMNHEYMSWYRQDPGLGLRQIYYSMNVEVTDKGDVPEGYKVSRKEKRNFPLILESPSPNQTSLYFCASSRRLPPPYGYTFGSGTRLTVVEDLNKVFPPEVAVFE
B4: TCRCD8-EL8-LM7 #7 (TCR)
TCR alpha: AQKVTQAQTEISVVEKEDVTLDCVYETRDTTYYLFWYKQPPSGELVFLIRRNSFDEQNEISGRYSWNFQKSTSSFNFTITASQVVDSAVYFCALSESSNTGKLIFGQGTTLQVKPDIQNPDPAVYQLRDS
TCR beta: EAQVTQNPRYLITVTGKKLTVTCSQNMNHEYMSWYRQDPGLGLRQIYYSMNVEVTDKGDVPEGYKVSRKEKRNFPLILESPSPNQTSLYFCASSRREPPPYGYTFGSGTRLTVVEDLNKVFPPEVAVFE

The target of this experiment is HLA-A*01:01 presenting KRAS-Q61H 55-64 (…) (human). Nature of the experiment: cell-based or functional assay.
The molecule B1 had a minimal recognized peptide concentration (functional avidity, IFNγ ELISPOT) of 10 nM.
With B2, the minimal recognized peptide concentration (functional avidity, IFNγ ELISPOT) amounted to 100 nM.
B3: the minimal recognized peptide concentration (functional avidity, IFNγ ELISPOT) worked out at 10 nM.
Molecule B4 returned a minimal recognized peptide concentration (functional avidity, IFNγ ELISPOT) of 10 nM.
